{"source": "patent US6322962A", "about": "“Sterol-regulated Site-1 protease and assays of modulators thereof” (Board of Regents, The University of Texas System, priority 1999, dated 2001)", "molecules": {"B1": {"name": "Myc-S1P(Site-B mutant) (enzyme)", "chain": "DGGRSEQKLISEEDLNGEQKLISEEDLNGEQKLISEEDLNSSGRLGKKAFEKASCPSCSHLTLKVEFSSTVVEYEYIVAFNGYFTAKARNSFISSALKSSEVDNWRIIPRNNPSSDYPSDFEVIQIKEKQKAGLLTLEDHPNIKRVTPQRKVFAAAAFAESDPIVPCNETRWSQKWQSSRPLRRASLSLGSGFWHATGRHSSRRLLRAIPRQVAQTLQADVLWQMGYTGANVRVAVFDTGLSEKHPHFKNVKERTNWTNERTLDDGLGHGTFVAGVIASMRECQGFAPDAELHIFRVFTNNQVSYTSWFLDAFNYAILKKIDVLNLSIGGPDFMDHPFVDKVWELTANNVIMVSAIGNDGPLYGTLNNPADQMDVIGVGGIDFEDNIARFSSRGMTTWELPGGYGRVKPDIVTYGAGVRGSGVKGGCRALSGTSVASPVVAGAVTLLVSTVQKRELVNPASVKQALIASARRLPGVNMFEQGHGKLDLLRAYQILSSYKPQASLSPSYIDLTECPYMWPYCSQPIYYGGMPTIVNVTILNGMGVTGRIVDKPEWRPYLPQNGDNIEVAFSYSSVLWPWSGYLAISISVTKKAASWEGIAQGHIMITVASPAETEAKNGAEHTSTVKLPIKVKIIPTPPRSKRVLWDQYHNLRYPPGYFPRDNLRMKNDPLDWNGDHVHTNFRDMYQHLRSMGYFVEVLGAPFTCFDATQYGTLLMVDSEEEYFPEEIAKLRRDVDNGLSLVIFSDWYNTSVMRKVKFYDENTRQWWMPDTGGANIPALNELLSVWNMGFSDGLYEGEFALANHDMYYASGCSIAKFPEDGVVITQTFKDQGLEVLKQETAVVENVPILGLYQIPAEGGGRIVLYGDSNCLDDSHRQKDCFWLLDALLQYTSYGVNPPSLSHSGNRQRPPSGAGLAPPERMEGNHLHRYSKVLEAHLGDPKPRPLPACPHLSWAKPQPLNETAPSNLWKHQKLLSIDLDKVVLPNFRSNRPQVRPLSPGESGAWDIPGGIMPGRYNQEVGQTIPVFAFLGAMVALAFFVVQISKAKSRPKRRRPRAKRPQLTQQTHPPRTPSV"}, "B2": {"name": "wild-type S1P: hamster Site-1 protease expressed from cDNA (protein, UniProt Q9Z2A8 187-1052, looked up)", "Membrane-bound transcription …": "RAIPRQVAQTLQADVLWQMGYTGANVRVAVFDTGLSEKHPHFKNVKERTNWTNERTLDDGLGHGTFVAGVIASMRECQGFAPDAELHIFRVFTNNQVSYTSWFLDAFNYAILKKIDVLNLSIGGPDFMDHPFVDKVWELTANNVIMVSAIGNDGPLYGTLNNPADQMDVIGVGGIDFEDNIARFSSRGMTTWELPGGYGRVKPDIVTYGAGVRGSGVKGGCRALSGTSVASPVVAGAVTLLVSTVQKRELVNPASVKQALIASARRLPGVNMFEQGHGKLDLLRAYQILSSYKPQASLSPSYIDLTECPYMWPYCSQPIYYGGMPTIVNVTILNGMGVTGRIVDKPEWRPYLPQNGDNIEVAFSYSSVLWPWSGYLAISISVTKKAASWEGIAQGHIMITVASPAETEAKNGAEHTSTVKLPIKVKIIPTPPRSKRVLWDQYHNLRYPPGYFPRDNLRMKNDPLDWNGDHVHTNFRDMYQHLRSMGYFVEVLGAPFTCFDATQYGTLLMVDSEEEYFPEEIAKLRRDVDNGLSLVIFSDWYNTSVMRKVKFYDENTRQWWMPDTGGANIPALNELLSVWNMGFSDGLYEGEFALANHDMYYASGCSIAKFPEDGVVITQTFKDQGLEVLKQETAVVENVPILGLYQIPAEGGGRIVLYGDSNCLDDSHRQKDCFWLLDALLQYTSYGVTPPSLSHSGNRQRPPSGAGLAPPERMEGNHLHRYSKVLEAHLGDPKPRPLPACPHLSWAKPQPLNETAPSNLWKHQKLLSIDLDKVVLPNFRSNRPQVRPLSPGESGAWDIPGGIMPGRYNQEVGQTIPVFAFLGAMVALAFFVVQISKAKSRPKRRRPRAKRPQLTQQTHPPRTPSV"}, "B3": {"name": "5411A: control S1P mutant, serine near catalytic triad mutated to alanine (protein, UniProt Q9Z2A8 187-1052, looked up, variant S411A)", "Membrane-bound transcription …": "B2 Membrane-bound transcription … with S225A"}}, "key": {"purified S1P(983)-C": {"target": "T1, purified S1P(983)-C (Cricetulus griseus, UniProt Q9Z2A8, T875N)", "T1 construct": "Truncated S1P (amino acids 1-983); GGR linker (NotI site); made in house; host or cells: SRD-12B cells (mutant CHO cells lacking S1P) stably transfected with pCMV-S1P(983)-Myc-His (TR-3117, 'S1P(983) cells'); secreted into the medium and purified on Ni-NTA", "T1 sequence (Q9Z2A8 187-983 T875N)": "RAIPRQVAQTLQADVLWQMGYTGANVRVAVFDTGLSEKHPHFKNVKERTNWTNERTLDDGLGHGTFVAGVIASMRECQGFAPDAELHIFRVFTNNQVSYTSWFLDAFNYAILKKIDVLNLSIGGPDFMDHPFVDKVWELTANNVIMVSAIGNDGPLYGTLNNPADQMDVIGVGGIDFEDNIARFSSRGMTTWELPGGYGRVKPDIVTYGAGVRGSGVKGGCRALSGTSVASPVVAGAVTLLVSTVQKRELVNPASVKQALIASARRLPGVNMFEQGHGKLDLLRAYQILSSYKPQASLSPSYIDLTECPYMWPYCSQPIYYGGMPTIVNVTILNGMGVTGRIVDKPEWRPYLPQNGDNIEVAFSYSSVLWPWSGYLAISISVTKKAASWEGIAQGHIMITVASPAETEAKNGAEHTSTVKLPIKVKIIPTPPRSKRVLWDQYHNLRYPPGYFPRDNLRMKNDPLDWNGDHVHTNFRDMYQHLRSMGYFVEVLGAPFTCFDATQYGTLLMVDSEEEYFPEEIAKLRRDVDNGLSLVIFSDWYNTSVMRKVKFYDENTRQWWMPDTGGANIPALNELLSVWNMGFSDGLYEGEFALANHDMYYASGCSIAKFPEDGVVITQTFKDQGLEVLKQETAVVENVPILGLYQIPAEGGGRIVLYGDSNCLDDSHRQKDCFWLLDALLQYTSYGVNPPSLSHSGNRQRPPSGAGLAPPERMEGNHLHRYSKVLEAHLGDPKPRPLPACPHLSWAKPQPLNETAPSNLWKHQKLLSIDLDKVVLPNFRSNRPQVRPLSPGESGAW", "assay": "Fluorogenic peptide assay for S1P activity (cleavage of MCA-conjugated peptides)", "type": "biochemical, hamster", "procedure": "Fluorogenic Peptide Assay for S1P Activity\nS1P activity was measured fluorometrically with MCA-conjugated peptidyl substrates. Each reaction was carried out in 0.2 ml of assay buffer (25 mM Tris, 25 mM Mes, 25 mM acetic acid, and 1 mM CaCl2 adjusted to pH 8.0 with concentrated NaOH). Reactions contained MCA-peptide (final concentration 100 μM, added in 2 μl DMSO) and […] of purified S1P(983)-C. After incubation for 0.5-5 h at 37° C., each reaction was terminated by addition of 1 ml of ice-cold 5 mM sodium EDTA. The liberated 7-amino-4-methyl-coumarin (AMC) was measured with a Perkin-ElmerLS-30 luminescence spectrometer (360 nm excitation, 460 nm emission). A standard curve of fluorescence intensity was generated with different concentrations of AMC (Promega).\nSimilar substrates have been used to assay furin, prohormone convertases, and other subtilisin-related enzymes (Nakayama, 1997). […] The sequence of this peptide corresponds to the sequence at Site-B of S1P, which is known to be cleaved by S1P in an autocatalytic reaction. Fluorescence rose linearly with time for 5 h. […] This differs from the observations with furin and the prohormone convertases, whose pH optima are generally in the range of 6-7 (Nakayama, 1997).\nThe indicated fluorogenic peptide-MCA (100 μM) was incubated with 3 μg of purified S1P(983)-C at 37° C. for 5 h. The S1P activity of Ac-VFRSLK-MCA (SEQ ID NO:13, 930 pmol per min/mg protein) was set at 1.0, and the activity of the other substrates was expressed relative to this value. Each value represents the average of duplicate incubations, which varied from each other by <10%."}, "SKI-1": {"tested_on": "SKI-1", "settings": "Seidah et al., 1999, preliminary data; cited from earlier work"}, "[1]": {"target": "HSV-tagged human SREBP-2, wild-type (human) (UniProt Q12772)"}, "[2]": {"tested_on": "PLAP-BP2(513-1141) in SRD-12B cells", "assay": "Secreted alkaline phosphatase assay in SRD-12B cells transfected with wild-type or mutant S1P cDNAs", "type": "cell-based, hamster", "settings": "Myc-tagged S1P cDNA"}, "SREBP-2": {"tested_on": "SREBP-2", "assay": "Immunoblot of cleavage of HSV-tagged SREBP-2 in transfected SRD-12B cells", "type": "cell-based, hamster", "settings": "SRD-12B cells, HSV-tagged SREBP-2", "procedure": "On day 0, SRD-12B cells were set up at a density of 6×10^5 cells/60-mm dish in medium B. On day 1, cells were transfected with 4 μg of the indicated plasmid DNA plus 12 μl of LipofectAMINE™ reagent (Life Technologies) according to the manufacturer's instructions with modifications as follows. LipofectAMINE™/DNA complexes were formed in 1 ml of serum-free medium for 15 min at room temperature, and 0.5 ml were added to 1 ml of serum-free medium per dish. […] After incubation at 37 ° C. for 20 h, the cells received N-acetyl-leucinal-leucinal norleucinal (ALLN) at a final concentration of 25 μg/ml. […] After boiling for 5 min, the proteins were subjected to SDS-PAGE and transferred to Hybond-C Extra nitrocellulose filters (Amersham). The filters were incubated with the antibodies described in the figure legends. […] Gels were calibrated with prestained molecular weight markers (New England Biolabs, Beverly, Mass.). Filters were exposed to X-Omat Blue XB-1 film (Kodak, Rochester, N.Y.) with intensifying screens at room temperature for the indicated time.\nCell membranes and nuclear extracts were subjected to electrophoresis and blotted with an antibody against the HSV epitope-tag.\nIn a more direct test for S1P catalytic activity, the mutant plasmids were transfected into the SRD-12B cells together with pTK-HSV-BP2. Membranes and nuclear extracts were subjected to SDS-PAGE and blotted with an antibody against the HSV-tagged SREBP-2 (FIG. 9B).\nThe inventors cotransfected cDNAs encoding wild-type S1P or one of the mutants. Cell membrane pellets and nuclear extracts were subjected to SDS-PAGE. and the NH2 -terminus of SREBP-2 was visualized by immunoblotting with anti-HSV (FIG. 16A)."}}, "note": "Where a chain is given by its changes, count along the chain named. Names and notes keep the numbering of the source. “Also recorded” adds a separate entry of the source. Peptide text beside a SMILES is read from it. * marks the point of attachment. AMC = Cc1cc(=O)oc2cc(N*)ccc12"}
{"molecule": "CC(=O)N[C@@H](CCCNC(=N)N)C(=O)N[C@@H](CO)C(=O)N[C@H](C(=O)N[C@@H](CC(C)C)C(=O)Nc1ccc2c(C)cc(=O)oc2c1)C(C)C", "note": "[Ac-RSVL-MCA, Ac-Arg-Ser-Val-Leu-MCA] (Ac-RSVL-{AMC})", "values": [{"measurement": "Relative Activity", "setting": "purified S1P(983)-C; 100 μM peptide-MCA, 3 μg S1P(983)-C, 37° C., 5 h, Ac-VFRSLK-MCA set at 1.0", "result": "< 0.1"}, {"measurement": "cleavage of the peptide", "setting": "purified S1P(983)-C; result in words", "result": "did not cleave; also recorded: does not cleave"}, {"measurement": "cleavage by SKI-1 culture medium", "setting": "SKI-1", "result": "unable to cleave"}]}
{"molecule": "27-amino acid synthetic peptide: 27-amino acid synthetic peptide corresponding to the luminal loop sequence of human SREBP-2 (GGAHDSDQHPHSGSGRSVLSFESGSGG)", "values": [{"measurement": "cleavage by SKI-1 culture medium", "setting": "SKI-1", "result": "able to cleave"}]}
{"molecule": "B1", "values": [{"measurement": "cleaved nuclear form of HSV-tagged SREBP-2 on immunoblot (SRD-12B cells) (fold higher levels of expression)", "setting": "[1]", "result": 10}]}
{"molecule": "B2", "values": [{"measurement": "PLAP activity in the culture medium", "setting": "[2]", "result": "increased"}, {"measurement": "cleavage of SREBP-2 by S1P or S1P mutant", "setting": "SREBP-2", "result": "maximal cleavage"}, {"measurement": "cleavage of SREBP-2 by S1P or S1P mutant", "setting": "SREBP-2; listed as Wild-type S1P", "result": "restored cleavage"}]}
{"molecule": "B3", "values": [{"measurement": "PLAP activity relative to wild-type levels", "setting": "[2]", "result": "50-70 % of wild-type levels"}]}
